# Assay results from publication PMC9482650, “Quantitative fragmentomics allow affinity mapping of interactomes” (Nature Communications, 2022).
# T1: APBA1_1, Q02410
# T1 sequence (Q02410 651-752, limits assumed, looked up): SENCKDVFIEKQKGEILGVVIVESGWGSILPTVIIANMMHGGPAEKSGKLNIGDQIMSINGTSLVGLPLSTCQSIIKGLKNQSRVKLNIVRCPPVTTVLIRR
# T2: MPDZ_10, O75970
# T2 sequence (O75970 1624-1722, limits assumed, looked up): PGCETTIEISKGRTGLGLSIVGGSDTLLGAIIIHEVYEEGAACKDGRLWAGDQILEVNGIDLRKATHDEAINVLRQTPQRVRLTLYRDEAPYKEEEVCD
# T3: GRIP1_3, Q9Y3R0
# T3 sequence (Q9Y3R0 247-346, limits assumed, looked up): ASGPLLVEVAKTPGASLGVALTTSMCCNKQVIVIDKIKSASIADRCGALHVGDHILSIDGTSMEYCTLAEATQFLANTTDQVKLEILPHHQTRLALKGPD
# T4: SNTB1, Q13884
# T4 sequence (Q13884 107-205, limits assumed, looked up): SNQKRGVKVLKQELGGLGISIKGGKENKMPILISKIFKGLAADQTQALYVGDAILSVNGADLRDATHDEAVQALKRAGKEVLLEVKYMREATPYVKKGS
# T5: PDZD7_3, Q9H5P4
# T5 sequence (Q9H5P4 857-944, limits assumed, looked up): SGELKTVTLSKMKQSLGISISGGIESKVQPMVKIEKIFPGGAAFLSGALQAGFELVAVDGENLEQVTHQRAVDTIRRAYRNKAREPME
# T6: GRIP1_7, Q9Y3R0
# T6 sequence (Q9Y3R0 999-1096, limits assumed, looked up): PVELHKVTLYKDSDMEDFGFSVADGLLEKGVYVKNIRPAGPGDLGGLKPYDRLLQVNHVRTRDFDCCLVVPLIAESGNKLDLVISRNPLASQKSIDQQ
# T7: SHANK1, Q9Y566
# T7 sequence (Q9Y566 658-767, limits assumed, looked up): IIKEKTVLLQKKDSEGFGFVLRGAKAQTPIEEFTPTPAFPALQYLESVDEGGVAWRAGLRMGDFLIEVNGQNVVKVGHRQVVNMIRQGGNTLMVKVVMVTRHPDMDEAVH
# T8: TX1BP3, O14907
# T8 sequence (O14907 10-122, limits assumed, looked up): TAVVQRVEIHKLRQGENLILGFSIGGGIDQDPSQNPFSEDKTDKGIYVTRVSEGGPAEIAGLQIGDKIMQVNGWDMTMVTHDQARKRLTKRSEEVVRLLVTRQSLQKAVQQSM
# T9: LNX2_3, Q8N448
# T9 sequence (Q8N448 463-564, limits assumed, looked up): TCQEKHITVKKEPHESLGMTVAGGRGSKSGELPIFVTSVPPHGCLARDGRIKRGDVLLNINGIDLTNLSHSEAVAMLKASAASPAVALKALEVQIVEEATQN
# T10: APBA1_2, Q02410
# T10 sequence (Q02410 742-832, limits assumed, looked up): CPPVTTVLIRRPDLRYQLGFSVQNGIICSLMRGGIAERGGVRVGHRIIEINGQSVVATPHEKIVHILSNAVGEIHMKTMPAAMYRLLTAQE
# T11: HTRA3, P83110
# T11 sequence (P83110 354-453, limits assumed, looked up): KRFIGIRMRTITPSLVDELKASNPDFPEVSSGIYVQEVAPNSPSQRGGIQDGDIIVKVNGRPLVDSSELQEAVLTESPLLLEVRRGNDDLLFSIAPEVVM
# T12: SYNJ2BP, P57105
# T12 sequence (P57105 8-110, limits assumed, looked up): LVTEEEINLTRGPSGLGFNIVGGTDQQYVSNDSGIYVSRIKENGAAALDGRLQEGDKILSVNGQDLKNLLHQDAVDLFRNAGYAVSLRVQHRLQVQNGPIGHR
# T13: MPP7, Q5T2T1
# T13 sequence (Q5T2T1 134-230, limits assumed, looked up): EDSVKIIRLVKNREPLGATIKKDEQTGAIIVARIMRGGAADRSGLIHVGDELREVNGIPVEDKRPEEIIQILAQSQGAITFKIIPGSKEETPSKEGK
# B1: FZD8, Q9H461 (peptide)
# chain: YPKQMPLSQV
# B2: NOS1AP, O75052 (peptide)
# chain: GDGLDDEIAV
# B3: SMCHD1, A6NHR9 (peptide)
# chain: QNRIITKTDV
# B4: UNC93A, Q86WB7 (peptide)
# chain: AEDEEIQTKM
# B5: NECTIN3, Q9NQS3 (peptide)
# chain: SVISRREWYV
# B6: ADAM17, P78536 (peptide)
# chain: NRVDSKETEC
# Biological target: FRMPD2_1, Q68DX3
# Sequence (Q68DX3 770-861): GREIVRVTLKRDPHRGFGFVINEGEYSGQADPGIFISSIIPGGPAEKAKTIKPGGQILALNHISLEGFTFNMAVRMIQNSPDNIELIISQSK
# Assay: holdup assay
# Set-up: key: below the threshold = too weak to quantify, mostly under pKd 3.1 to 4
# Details: plain residues with an end cap or a label only (N-terminal biotin on a linker: ado-ado)
row,Binder,pKd
1,B1,below the threshold
2,B2,below the threshold
3,B3,below the threshold
4,B4,below the threshold
5,B5,4.51
6,B6,below the threshold

# Biological target: NHERF4_4, Q86UT5
# Sequence (Q86UT5 464-550): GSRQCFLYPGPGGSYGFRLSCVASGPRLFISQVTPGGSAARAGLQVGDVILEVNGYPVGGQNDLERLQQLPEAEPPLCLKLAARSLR
# Assay: holdup assay
# Set-up: key: below the threshold = too weak to quantify, mostly under pKd 3.1 to 4
# Details: plain residues with an end cap or a label only (N-terminal biotin on a linker: ado-ado)
row,Binder,pKd
1,B1,below the threshold
2,B2,below the threshold
3,B3,below the threshold
4,B4,below the threshold
5,B5,4.07
6,B6,below the threshold

# Biological target: PARD3_3, Q8TEW0
# Sequence (Q8TEW0 582-685): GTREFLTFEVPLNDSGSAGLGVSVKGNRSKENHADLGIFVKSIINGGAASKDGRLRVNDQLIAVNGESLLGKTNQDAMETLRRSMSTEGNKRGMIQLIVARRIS
# Assay: holdup assay
# Set-up: key: below the threshold = too weak to quantify, mostly under pKd 3.1 to 4
# Details: plain residues with an end cap or a label only (N-terminal biotin on a linker: ado-ado)
row,Binder,pKd
1,B1,below the threshold
2,B2,4.3
3,B3,below the threshold
4,B4,below the threshold
5,B5,4.75
6,B6,below the threshold

# Biological target: GIPC2, Q8TF65
# Sequence (Q8TF65 112-203): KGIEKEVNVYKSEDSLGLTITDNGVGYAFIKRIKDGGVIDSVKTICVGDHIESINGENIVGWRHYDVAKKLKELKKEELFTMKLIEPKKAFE
# Assay: holdup assay
# Set-up: key: below the threshold = too weak to quantify, mostly under pKd 3.1 to 4
# Details: plain residues with an end cap or a label only (N-terminal biotin on a linker: ado-ado)
row,Binder,pKd
1,B1,below the threshold
2,B2,below the threshold
3,B3,below the threshold
4,B4,below the threshold
5,B5,below the threshold
6,B6,4.27

# Biological target: T1, APBA1_1, Q02410
# Assay: holdup assay
# Set-up: key: below the threshold = too weak to quantify, mostly under pKd 3.1 to 4
# Details: plain residues with an end cap or a label only (N-terminal biotin on a linker: ado-ado)
row,Binder,pKd
1,B1,below the threshold
2,B2,below the threshold
3,B3,below the threshold
4,B4,below the threshold
5,B5,below the threshold
6,B6,below the threshold

# Biological target: DLG2_2, Q15700
# Sequence (Q15700 189-283): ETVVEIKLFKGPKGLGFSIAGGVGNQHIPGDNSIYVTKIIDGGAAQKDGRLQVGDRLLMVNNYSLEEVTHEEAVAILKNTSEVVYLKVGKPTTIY
# Assay: holdup assay
# Set-up: key: below the threshold = too weak to quantify, mostly under pKd 3.1 to 4
# Details: plain residues with an end cap or a label only (N-terminal biotin on a linker: ado-ado)
row,Binder,pKd
1,B1,below the threshold
2,B2,below the threshold
3,B3,3.93
4,B4,below the threshold
5,B5,3.49
6,B6,4.25

# Biological target: T2, MPDZ_10, O75970
# Assay: holdup assay
# Set-up: key: below the threshold = too weak to quantify, mostly under pKd 3.1 to 4
# Details: plain residues with an end cap or a label only (N-terminal biotin on a linker: ado-ado)
row,Binder,pKd
1,B1,3.7
2,B2,below the threshold
3,B3,3.97
4,B4,below the threshold
5,B5,below the threshold
6,B6,below the threshold

# Biological target: T3, GRIP1_3, Q9Y3R0
# Assay: holdup assay
# Set-up: key: below the threshold = too weak to quantify, mostly under pKd 3.1 to 4
# Details: plain residues with an end cap or a label only (N-terminal biotin on a linker: ado-ado)
row,Binder,pKd
1,B1,below the threshold
2,B2,below the threshold
3,B3,below the threshold
4,B4,below the threshold
5,B5,below the threshold
6,B6,below the threshold

# Biological target: T4, SNTB1, Q13884
# Assay: holdup assay
# Set-up: key: below the threshold = too weak to quantify, mostly under pKd 3.1 to 4
# Details: plain residues with an end cap or a label only (N-terminal biotin on a linker: ado-ado)
row,Binder,pKd
1,B1,below the threshold
2,B2,below the threshold
3,B3,3.64
4,B4,below the threshold
5,B5,below the threshold
6,B6,4.87

# Biological target: MAST1, Q9Y2H9
# Sequence (Q9Y2H9 962-1065): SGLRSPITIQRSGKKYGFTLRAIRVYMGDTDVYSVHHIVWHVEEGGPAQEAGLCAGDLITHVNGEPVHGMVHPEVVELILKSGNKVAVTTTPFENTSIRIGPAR
# Assay: holdup assay
# Set-up: key: below the threshold = too weak to quantify, mostly under pKd 3.1 to 4
# Details: plain residues with an end cap or a label only (N-terminal biotin on a linker: ado-ado)
row,Binder,pKd
1,B1,4.09
2,B2,3.72
3,B3,below the threshold
4,B4,4.72
5,B5,4.34
6,B6,3.88

# Biological target: T5, PDZD7_3, Q9H5P4
# Assay: holdup assay
# Set-up: key: below the threshold = too weak to quantify, mostly under pKd 3.1 to 4
# Details: plain residues with an end cap or a label only (N-terminal biotin on a linker: ado-ado)
row,Binder,pKd
1,B1,4.17
2,B2,below the threshold
3,B3,4.13
4,B4,below the threshold
5,B5,below the threshold
6,B6,below the threshold

# Biological target: Inadl_1, Q8NI35
# Sequence (Q8NI35 113-229): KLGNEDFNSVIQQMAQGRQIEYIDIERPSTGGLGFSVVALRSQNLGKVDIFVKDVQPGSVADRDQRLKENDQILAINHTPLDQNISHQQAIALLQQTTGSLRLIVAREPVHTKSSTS
# Assay: holdup assay
# Set-up: key: below the threshold = too weak to quantify, mostly under pKd 3.1 to 4
# Details: plain residues with an end cap or a label only (N-terminal biotin on a linker: ado-ado)
row,Binder,pKd
1,B1,below the threshold
2,B2,below the threshold
3,B3,below the threshold
4,B4,below the threshold
5,B5,4.25
6,B6,below the threshold

# Biological target: T6, GRIP1_7, Q9Y3R0
# Assay: holdup assay
# Set-up: key: below the threshold = too weak to quantify, mostly under pKd 3.1 to 4
# Details: plain residues with an end cap or a label only (N-terminal biotin on a linker: ado-ado)
row,Binder,pKd
1,B1,below the threshold
2,B2,below the threshold
3,B3,below the threshold
4,B4,below the threshold
5,B5,5.11
6,B6,below the threshold

# Biological target: T7, SHANK1, Q9Y566
# Assay: holdup assay
# Set-up: key: below the threshold = too weak to quantify, mostly under pKd 3.1 to 4
# Details: plain residues with an end cap or a label only (N-terminal biotin on a linker: ado-ado)
row,Binder,pKd
1,B1,below the threshold
2,B2,below the threshold
3,B3,below the threshold
4,B4,5.21
5,B5,below the threshold
6,B6,below the threshold

# Biological target: T8, TX1BP3, O14907
# Assay: holdup assay
# Set-up: key: below the threshold = too weak to quantify, mostly under pKd 3.1 to 4
# Details: plain residues with an end cap or a label only (N-terminal biotin on a linker: ado-ado)
row,Binder,pKd
1,B1,below the threshold
2,B2,below the threshold
3,B3,3.51
4,B4,below the threshold
5,B5,below the threshold
6,B6,below the threshold

# Biological target: T9, LNX2_3, Q8N448
# Assay: holdup assay
# Set-up: key: below the threshold = too weak to quantify, mostly under pKd 3.1 to 4
# Details: plain residues with an end cap or a label only (N-terminal biotin on a linker: ado-ado)
row,Binder,pKd
1,B1,below the threshold
2,B2,below the threshold
3,B3,below the threshold
4,B4,below the threshold
5,B5,below the threshold
6,B6,below the threshold

# Biological target: T10, APBA1_2, Q02410
# Assay: holdup assay
# Set-up: key: below the threshold = too weak to quantify, mostly under pKd 3.1 to 4
# Details: plain residues with an end cap or a label only (N-terminal biotin on a linker: ado-ado)
row,Binder,pKd
1,B1,3.81
2,B2,below the threshold
3,B3,3.9
4,B4,below the threshold
5,B5,3.85
6,B6,below the threshold

# Biological target: T11, HTRA3, P83110
# Assay: holdup assay
# Set-up: key: below the threshold = too weak to quantify, mostly under pKd 3.1 to 4
# Details: plain residues with an end cap or a label only (N-terminal biotin on a linker: ado-ado)
row,Binder,pKd
1,B1,below the threshold
2,B2,below the threshold
3,B3,below the threshold
4,B4,below the threshold
5,B5,4.99
6,B6,3.65

# Biological target: T12, SYNJ2BP, P57105
# Assay: holdup assay
# Set-up: key: below the threshold = too weak to quantify, mostly under pKd 3.1 to 4
# Details: plain residues with an end cap or a label only (N-terminal biotin on a linker: ado-ado)
row,Binder,pKd
1,B1,below the threshold
2,B2,below the threshold
3,B3,4.24
4,B4,below the threshold
5,B5,3.55
6,B6,4.28

# Biological target: T13, MPP7, Q5T2T1
# Assay: holdup assay
# Set-up: key: below the threshold = too weak to quantify, mostly under pKd 3.1 to 4
# Details: plain residues with an end cap or a label only (N-terminal biotin on a linker: ado-ado)
row,Binder,pKd
1,B1,below the threshold
2,B2,below the threshold
3,B3,below the threshold
4,B4,below the threshold
5,B5,4.93
6,B6,3.65

# Biological target: GRID2IP_2, A4D2P6
# Sequence (A4D2P6 272-370): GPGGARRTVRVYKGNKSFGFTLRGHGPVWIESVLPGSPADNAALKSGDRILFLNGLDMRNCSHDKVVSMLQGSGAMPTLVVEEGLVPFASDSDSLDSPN
# Assay: holdup assay
# Set-up: key: below the threshold = too weak to quantify, mostly under pKd 3.1 to 4
# Details: plain residues with an end cap or a label only (N-terminal biotin on a linker: ado-ado)
row,Binder,pKd
1,B1,4.28
2,B2,below the threshold
3,B3,3.95
4,B4,3.77
5,B5,3.49
6,B6,below the threshold

# Biological target: MAGI3_2, Q5TCQ9
# Sequence (Q5TCQ9 398-503): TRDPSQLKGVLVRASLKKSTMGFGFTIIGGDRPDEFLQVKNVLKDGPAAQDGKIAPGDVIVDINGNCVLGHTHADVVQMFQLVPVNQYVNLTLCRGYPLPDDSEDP
# Assay: holdup assay
# Set-up: key: below the threshold = too weak to quantify, mostly under pKd 3.1 to 4
# Details: plain residues with an end cap or a label only (N-terminal biotin on a linker: ado-ado)
row,Binder,pKd
1,B1,4.44
2,B2,3.98
3,B3,4.15
4,B4,below the threshold
5,B5,5.74
6,B6,below the threshold

# Biological target: GRID2IP_1, A4D2P6
# Sequence (A4D2P6 1-87): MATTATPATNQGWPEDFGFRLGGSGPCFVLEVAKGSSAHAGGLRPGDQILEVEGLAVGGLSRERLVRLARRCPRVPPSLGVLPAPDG
# Assay: holdup assay
# Set-up: key: below the threshold = too weak to quantify, mostly under pKd 3.1 to 4
# Details: plain residues with an end cap or a label only (N-terminal biotin on a linker: ado-ado)
row,Binder,pKd
1,B1,below the threshold
2,B2,below the threshold
3,B3,below the threshold
4,B4,below the threshold
5,B5,below the threshold
6,B6,below the threshold
